Laboratory results from PMC8530227.
pKd: −log10 of the molar value.

Biological target: Get3^BDP•TA targeting complex (Get3 dimer with the model tail-anchored substrate 3xStrep-SUMOnc-Bos1-opsin) (yeast | not stated) (UniProt Q12154)
Test: FRET or BRET

Chain of Get3^BDP•TA targeting complex (Get3 dimer with the model tail-anchored substrate 3xStrep-SUMOnc-Bos1-opsin) (yeast | not stated) (Q12154 whole entry, chain 1 of 2): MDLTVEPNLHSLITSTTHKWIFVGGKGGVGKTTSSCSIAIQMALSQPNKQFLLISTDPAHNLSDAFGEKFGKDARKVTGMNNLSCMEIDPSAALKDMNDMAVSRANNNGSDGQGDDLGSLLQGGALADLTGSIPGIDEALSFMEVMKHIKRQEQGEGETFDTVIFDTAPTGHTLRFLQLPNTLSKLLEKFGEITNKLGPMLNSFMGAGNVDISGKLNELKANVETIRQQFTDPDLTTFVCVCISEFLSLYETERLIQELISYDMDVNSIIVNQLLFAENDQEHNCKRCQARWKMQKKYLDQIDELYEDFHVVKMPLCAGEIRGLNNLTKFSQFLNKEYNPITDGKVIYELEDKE
Chain of Get3^BDP•TA targeting complex (Get3 dimer with the model tail-anchored substrate 3xStrep-SUMOnc-Bos1-opsin) (yeast | not stated) (P25385 203-244, chain 2 of 2, further chain): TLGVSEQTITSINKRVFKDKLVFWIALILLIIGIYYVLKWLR

Substance | reduction in donor fluorescence (FRET) [%] | pKd
mini-Get1^TMR/2 (mini-Get1/2 labeled with TMR on Get1CD) (from UniProt P53192 20-102; P40056 1-150) (complex) | 50 | –
mini-Get1/2^TMR (mini-Get1/2 labeled with TMR on Get2CD) (from UniProt P53192 20-102; P40056 1-150) (complex) | 50 | –
mini-Get1(NR)/2^TMR (from UniProt P53192 20-102; P40056 1-150) (complex) | – | 8.15
